From patent US20210261937

Columns and labels:
[1] = target: bdSUMO D67K-MBP fusion protein
[2] = target: bdSUMO Mut10-MBP fusion protein
[3] = target: bdSUMO Mut11-MBP fusion protein
[4] = target: bdSUMO Mut12-MBP fusion protein
[5] = target: bdSUMO Mut13-MBP fusion protein
[6] = target: bdSUMO Mut14-MBP fusion protein
[7] = target: bdSUMO Mut15-MBP fusion protein
[8] = target: bdSUMO Mut8-MBP fusion protein
[9] = target: bdSUMO-MBP fusion protein
[10] = target: bdSUMO^Mut1-MBP fusion protein
[11] = target: hsSUMO2-MBP fusion protein
[12] = target: scSUMO-MBP fusion protein
[13] = target: hsSUMO2-MBP fusion protein with the bdSUMO^Mut1 exchanges
[14] = target: hsSUMO2-MBP fusion protein with the bdSUMO^Mut11 exchanges
[15] = target: scSUMO-MBP fusion protein with the bdSUMO^Mut1 exchanges
[16] = target: scSUMO-MBP fusion protein with the bdSUMO^Mut11 exchanges

| Protein | cleavage of 100 µM fusion, 1 h at 0 °C (FIG. 7) (SUMOstar-MBP fusion) | cleavage of the SUMO fusion protein [1] | cleavage of the SUMO fusion protein [2] | cleavage of the SUMO fusion protein [3] | cleavage of the SUMO fusion protein [4] | cleavage of the SUMO fusion protein [5] | cleavage of the SUMO fusion protein [6] | cleavage of the SUMO fusion protein [7] | cleavage of the SUMO fusion protein [8] | cleavage of the SUMO fusion protein [9] | cleavage of the SUMO fusion protein [10] | cleavage of the SUMO fusion protein [11] | cleavage of the SUMO fusion protein [12] | further results |
| --- | --- | --- | --- | --- | --- | --- | --- | --- | --- | --- | --- | --- | --- | --- |
| bdSENP1^MutB protease (protein) PFVPLTDEDEDNVRHALGGRKRSETLSVHEASSIVITREILQCLNDKEWLNDEVINLYLELLKERELREPNKFLKCHFFNTFFYKKLINGGYDYKSVREWTTKRKLGYNLIDCDKIFVPIHKDVHWCLAVINIKEKKFQYLDSLGYMDMKALRILAKYLVDEVKDKSGKQIDVHAWKQEGVQNLPLQENGWDCGMFMLKYIDFYSRDMELVFGQKHMSYFRRRTAKEILDLKAG | the SUMOstar-MBP fusion remained intact even at the highest protease concentration of 10 µM | < 75 % cleavage | 100 % cleavage | 100 % cleavage | 100 % cleavage | 100 % cleavage | 100 % cleavage | 100 % cleavage | < 50 % cleavage | < 25 % cleavage | 100 % cleavage | resistant | resistant | molar excess of substrate cleaved within one hour at 0 °C [10]: able to cleave a 500-fold molar excess of substrate within one hour at 0 °C; protease concentration that cleaves the cognate substrate, 1 h at 0 °C (FIG. 7) [10]: bdSENP1^MutB protease only cleaved its cognate substrate at a concentration of 200 nM; protease concentration that cleaves ≈95% of 100 µM substrate, 1 h at 0 °C [10]: only 200 nM of bdSENP1^MutB protease were enough to cleave ≈95% of the cognate substrate (bdSUMOmut 1); proteolytic efficiency against TEV protease [10]: around 1000-fold more efficient than the site-specific protease from the tobacco etch virus (TEV protease); proteolytic efficiency against bdSENP1 or Ulp1 on their cognate substrates [10]: only 5-fold less efficient as compared bdSENP1 or Ulp1; cleavage of SUMO-MBP fusion (FIG. 14) [11]: wild type scSUMO and human SUMO-2 (hsSUMO2) fusion proteins remain intact even in the presence of extremely high concentration of bdSENP1^MutB; cleavage of SUMO-MBP fusion (FIG. 14) [12]: wild type scSUMO and human SUMO-2 (hsSUMO2) fusion proteins remain intact even in the presence of extremely high concentration of bdSENP1^MutB |
| SUMOstar protease (protein) LVPELNEKDDDQVQKALASRENTQLMNRDNIEITVRDFKTLAPRRWLNSGIISFFMKYIEKSTPNTVAFNSFFYTNLSERGYQGVRRWMKRKKTQIDKLDKIFTPINLNQSHWALGIIDLKKKTIGYVDSLSNGPNAMSFAILTDLQKYVMEESKHTIGEDFDLIHLDCPQQPNGYDCGIYVCMNTLYGSADAPLDFDYKDAIRMRRFIAHLILTDALK | SUMOstar protease only recognized SUMOstar-MBP | resistant | resistant | resistant | resistant | resistant | resistant | resistant | resistant | 100 % cleavage | resistant | < 25 % cleavage | 100 % cleavage | cleavage of bdSUMO-MBP variants by 10 µM SUMOstar protease, 2 h at 25 °C (FIG. 5) [1]: the D67K mutation alone was necessary and sufficient for blocking cleavage; cleavage of 100 µM fusion, 1 h at 0 °C (FIG. 7) [10]: left intact the bdSUMO^Mut1-MBP fusion protein even at the highest SUMOstar protease concentration of 10 µM; cleavage of SUMO-MBP fusion, 1 h at 25 °C (FIG. 14) [13]: allowed cleavage resistance against Ulp1, SUMOstar protease, hsSENP2 and bdSENP1; cleavage of SUMO-MBP fusion, 1 h at 25 °C (FIG. 14) [14]: allowed cleavage resistance against Ulp1, SUMOstar protease, hsSENP2 and bdSENP1; cleavage of SUMO-MBP fusion, 1 h at 25 °C (FIG. 14) [15]: allowed cleavage resistance against Ulp1, SUMOstar protease, hsSENP2 and bdSENP1; cleavage of SUMO-MBP fusion, 1 h at 25 °C (FIG. 14) [16]: allowed cleavage resistance against Ulp1, SUMOstar protease, hsSENP2 and bdSENP1 |
